Measurements reported in patent publication US20120027763A1 (TRANSGENE BIOTEK, published 2012).

Molecular target: T1, TNFRSF17-epag
T1 construct: also called TNFRS17-epag
T1 peptide: KSRTGDEIILPRGLC
Assay: screening of ascites mAbs by specific Ag binding activity, after immunization with SEQ ID NO:2

binding result: binds
B1: TBL-CLN1 (antibody, V domains shown)
VH: EVKLVESGGGLVKPGGSLKLSCAASGITFSTYAMSWVRQTPEKRLEWVASITTGGNVYFPDSVKGRFTISRDNARNILYLQMSSLRSEDTAMYYCAGGITATRGTFAYWGQGTTLTVSS
VL: DVLMTQTPLSLPVSLGDQASISCRSSQSIGHSNGITYLEWYLQKPGQSPKLLIYKVSNRFSGVPDRFSGSGSGTDFTLKISRVEAEDLGVYYCFEGSHVPLTFGAGTKLELKR
notes: also called TBL-CLNI
